The values below are quoted from earlier work in publication PMC4712107.

Data set [1] deals with CRF-BP (Homo sapiens) (UniProt P24387).
Data set [2] shares this target. This is another data set of the same source.

Where two headings read alike, the source gives them in different places.

UniProt P24387, sequence (P24387 25-322): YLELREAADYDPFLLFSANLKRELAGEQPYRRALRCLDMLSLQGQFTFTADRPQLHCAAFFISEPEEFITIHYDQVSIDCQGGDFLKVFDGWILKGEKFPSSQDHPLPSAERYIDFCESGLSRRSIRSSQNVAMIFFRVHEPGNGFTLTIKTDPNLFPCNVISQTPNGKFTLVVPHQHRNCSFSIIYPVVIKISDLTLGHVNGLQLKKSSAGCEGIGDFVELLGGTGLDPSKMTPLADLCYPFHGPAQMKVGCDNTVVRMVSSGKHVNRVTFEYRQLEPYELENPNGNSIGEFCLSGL

As for CRF (from UniProt P06850), in data set [1], the Kd – broadly, the concentration at which binding is half-saturated – was less than 1 nM.
As for Urocortin 1 (from UniProt P55089), the Kd in data set [2] is less than 1 nM.
